# Measured values published in PMC6159521.
# Biological target: His-DnaNCg (Corynebacterium glutamicum sliding clamp, beta-clamp), purified (Corynebacterium glutamicum)
# Assay: BLI
row,Substance,Kd
1,"EndoMSCg (Corynebacterium glutamicum EndoMS/NucS), wild type, purified untagged protein (enzyme)",185 nM
2,EndoMSCg D144A mutant protein (enzyme),182 nM
